Measured values from patent US20200332017A1.
Where “and” joins values, the source holds several entries; their conditions need not be identical. Equal entries are not always repeated. Where two headings read alike, the source gives them in different places.

Key:
[1] = biological target: human CD40-Fc protein (amino acid residue 21-193 of SEQ ID NO: 67 linked to N-terminus of amino acid residue 99-330 of SEQ ID NO.: 24) (human); assay: capture ELISA, biotin human CD40-Fc; mAb at 2000 ng/mL
[2] = biological target: human CD40-Fc protein (amino acid residue 21-193 of SEQ ID NO: 67 linked to N-terminus of amino acid residue 99-330 of SEQ ID NO.: 24) (human); assay: capture ELISA, biotin human CD40-Fc; mAb at 0 ng/mL (blank)
[3] = biological target: human CD40-Fc protein (amino acid residue 21-193 of SEQ ID NO: 67 linked to N-terminus of amino acid residue 99-330 of SEQ ID NO.: 24) (human); assay: capture ELISA, biotin human CD40-Fc; mAb at 10000 ng/mL
[4] = biological target: human CD40-Fc protein (amino acid residue 21-193 of SEQ ID NO: 67 linked to N-terminus of amino acid residue 99-330 of SEQ ID NO.: 24) (human); assay: capture ELISA, biotin human CD40-Fc; mAb at 0.64 ng/mL
[5] = biological target: human CD40-Fc protein (amino acid residue 21-193 of SEQ ID NO: 67 linked to N-terminus of amino acid residue 99-330 of SEQ ID NO.: 24) (human); assay: capture ELISA, biotin human CD40-Fc; mAb at 80 ng/mL
[6] = biological target: human CD40-Fc protein (amino acid residue 21-193 of SEQ ID NO: 67 linked to N-terminus of amino acid residue 99-330 of SEQ ID NO.: 24) (human); assay: capture ELISA, biotin human CD40-Fc; mAb at 3.2 ng/mL
[7] = biological target: human CD40-Fc protein (amino acid residue 21-193 of SEQ ID NO: 67 linked to N-terminus of amino acid residue 99-330 of SEQ ID NO.: 24) (human); assay: capture ELISA, biotin human CD40-Fc; mAb at 400 ng/mL
[8] = biological target: human CD40-Fc protein (amino acid residue 21-193 of SEQ ID NO: 67 linked to N-terminus of amino acid residue 99-330 of SEQ ID NO.: 24) (human); assay: capture ELISA, biotin human CD40-Fc; mAb at 16 ng/mL
[9] = biological target: cynomolgus monkey CD40-his protein (Acro biosystems, Cat # CD0-052H6) (cynomolgus monkey) (UniProt G7PG38); assay: SPR, Biacore; cynomolgus CD40-his
cynomolgus monkey CD40-his protein (Acro biosystems, Cat # CD0-052H6) (cynomolgus monkey), sequence (G7PG38 entry or part of it limits assumed): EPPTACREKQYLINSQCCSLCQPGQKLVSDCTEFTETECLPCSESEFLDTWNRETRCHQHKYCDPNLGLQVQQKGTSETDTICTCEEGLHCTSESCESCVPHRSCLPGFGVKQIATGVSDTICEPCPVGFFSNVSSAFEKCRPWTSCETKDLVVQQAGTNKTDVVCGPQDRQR

[10] = biological target: Human CD40-his protein (Acro biosystems, Cat # CD0-H5228) (human) (UniProt P25942); assay: SPR, Biacore T200; antibody captured, antigen flowed; 1:1 Langmuir fit
Human CD40-his protein (Acro biosystems, Cat # CD0-H5228) (human), sequence (P25942 21-193 limits assumed): as the sequence (G7PG38 entry or part of it limits assumed) above, with S43G, R56H, Q70R, L89W, S95A, P101L, L106S, R142H, Q172L counted along it

[11] = biological target: human CD40-Fc protein (amino acid residue 21-193 of SEQ ID NO: 67 linked to N-terminus of amino acid residue 99-330 of SEQ ID NO.: 24) (human); assay: capture ELISA; antibody captured, biotin-labeled human CD40-Fc in solution
[12] = biological target: full length human CD40 (uniprot # P25942-1) on the membrane of 293T-CD40 cells (human) (UniProt P25942); assay: flow cytometry on 293T-CD40 cells
full length human CD40 (uniprot # P25942-1) on the membrane of 293T-CD40 cells (human), sequence (P25942 21-277 limits assumed): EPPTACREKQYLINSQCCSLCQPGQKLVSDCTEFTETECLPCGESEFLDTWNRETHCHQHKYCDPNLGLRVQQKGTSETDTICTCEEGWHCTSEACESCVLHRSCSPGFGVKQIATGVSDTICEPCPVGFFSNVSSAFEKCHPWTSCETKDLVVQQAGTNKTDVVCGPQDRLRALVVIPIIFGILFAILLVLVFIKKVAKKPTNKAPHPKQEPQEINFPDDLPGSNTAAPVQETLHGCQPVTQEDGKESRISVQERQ

[13] = biological target: full length human CD40 (uniprot # P25942-1) on the membrane of 293T-CD40 cells (human) (UniProt P25942); assay: cell-based or functional assay
[14] = biological target: human CD40-Fc protein (amino acid residue 21-193 of SEQ ID NO: 67 linked to N-terminus of amino acid residue 99-330 of SEQ ID NO.: 24) (human); assay: ligand blocking ELISA: human CD40-Fc coated, antibody titrated, then biotin-labeled human CD40L-his (blocked ligand), streptavidin-HRP, OD(450-630)
[15] = biological target: full length human CD40 (uniprot # P25942-1) on the membrane of 293T-CD40 cells (human) (UniProt P25942); assay: flow cytometry on 293T-CD40 cells, PE-labeled secondary antibody, MFI
[16] = biological target: Human CD40-his protein (Acro biosystems, Cat # CD0-H5228) (human) (UniProt P25942); assay: SPR, Biacore; human CD40-his
[17] = biological target: human CD40-Fc protein (amino acid residue 21-193 of SEQ ID NO: 67 linked to N-terminus of amino acid residue 99-330 of SEQ ID NO.: 24) (human); assay: capture ELISA (antibody captured on coated anti-IgG F(ab')2, biotin-labeled human CD40-Fc in solution, streptavidin-HRP, OD(450-630))
[18] = biological target: full length human CD40 (uniprot # P25942-1) on the membrane of 293T-CD40 cells (human) (UniProt P25942); assay: flow cytometry on 293T-CD40 cells, PE-labeled secondary antibody, MFI; remark: listed apart in the source
[19] = biological target: human CD40-Fc protein (amino acid residue 21-193 of SEQ ID NO: 67 linked to N-terminus of amino acid residue 99-330 of SEQ ID NO.: 24) (human); assay: capture ELISA; antibody captured, biotin-labeled human CD40-Fc in solution; remark: listed apart in the source
[20] = biological target: human CD40-Fc protein (amino acid residue 21-193 of SEQ ID NO: 67 linked to N-terminus of amino acid residue 99-330 of SEQ ID NO.: 24) (human); assay: capture ELISA (antibody captured on coated goat anti-human IgG F(ab')2, biotin-labeled human CD40-Fc in solution, streptavidin-HRP, OD(450-630))
[21] = biological target: Human CD40-his protein (Acro biosystems, Cat # CD0-H5228) (human) (UniProt P25942); assay: SPR, Biacore; antibody captured, human CD40-his flowed
[22] = biological target: full length human CD40 (uniprot # P25942-1) on the membrane of 293T-CD40 cells (human) (UniProt P25942); assay: flow cytometry on 293T-CD40 cells; remark: listed apart in the source
[23] = biological target: full length human CD40 (uniprot # P25942-1) on the membrane of 293T-CD40 cells (human) (UniProt P25942); assay: flow cytometry on 293T-CD40 cells, PE-labeled secondary antibody, MFI; remark: listed apart in the source
[24] = biological target: human CD40-Fc protein (amino acid residue 21-193 of SEQ ID NO: 67 linked to N-terminus of amino acid residue 99-330 of SEQ ID NO.: 24) (human); assay: capture ELISA; antibody captured, biotin-labeled human CD40-Fc in solution; remark: listed apart in the source
[25] = biological target: human CD40-Fc protein (amino acid residue 21-193 of SEQ ID NO: 67 linked to N-terminus of amino acid residue 99-330 of SEQ ID NO.: 24) (human); assay: as above; remark: listed apart in the source
[26] = biological target: human CD40-Fc protein (amino acid residue 21-193 of SEQ ID NO: 67 linked to N-terminus of amino acid residue 99-330 of SEQ ID NO.: 24) (human); assay: capture ELISA (antibody captured on coated anti-IgG F(ab')2, biotin-labeled human CD40-Fc in solution, streptavidin-HRP, OD(450-630)); remark: listed apart in the source

BM2 (Selicrelumab, Abgenix) (antibody), sequence (VH): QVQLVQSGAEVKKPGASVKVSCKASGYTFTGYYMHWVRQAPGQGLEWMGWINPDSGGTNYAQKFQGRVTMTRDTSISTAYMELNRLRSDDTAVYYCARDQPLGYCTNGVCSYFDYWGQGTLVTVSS
BM2 (Selicrelumab, Abgenix) (antibody), sequence (VL): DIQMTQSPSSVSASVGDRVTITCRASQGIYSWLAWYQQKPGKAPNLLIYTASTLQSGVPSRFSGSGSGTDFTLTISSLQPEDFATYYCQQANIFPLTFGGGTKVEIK
BM1 (Dacetuzumab, Genentech Inc) (antibody), sequence (VH): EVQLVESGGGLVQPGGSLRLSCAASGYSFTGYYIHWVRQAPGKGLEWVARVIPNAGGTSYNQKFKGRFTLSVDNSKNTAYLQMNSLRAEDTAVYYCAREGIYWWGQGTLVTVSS
BM1 (Dacetuzumab, Genentech Inc) (antibody), sequence (VL): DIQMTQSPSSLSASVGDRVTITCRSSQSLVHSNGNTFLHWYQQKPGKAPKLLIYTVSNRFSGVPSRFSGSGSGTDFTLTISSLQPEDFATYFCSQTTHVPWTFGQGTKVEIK
human CD40-Fc protein (amino acid residue 21-193 of SEQ ID NO: 67 linked to N-terminus of amino acid residue 99-330 of SEQ ID NO.: 24) (human), sequence (chain, as listed by the source): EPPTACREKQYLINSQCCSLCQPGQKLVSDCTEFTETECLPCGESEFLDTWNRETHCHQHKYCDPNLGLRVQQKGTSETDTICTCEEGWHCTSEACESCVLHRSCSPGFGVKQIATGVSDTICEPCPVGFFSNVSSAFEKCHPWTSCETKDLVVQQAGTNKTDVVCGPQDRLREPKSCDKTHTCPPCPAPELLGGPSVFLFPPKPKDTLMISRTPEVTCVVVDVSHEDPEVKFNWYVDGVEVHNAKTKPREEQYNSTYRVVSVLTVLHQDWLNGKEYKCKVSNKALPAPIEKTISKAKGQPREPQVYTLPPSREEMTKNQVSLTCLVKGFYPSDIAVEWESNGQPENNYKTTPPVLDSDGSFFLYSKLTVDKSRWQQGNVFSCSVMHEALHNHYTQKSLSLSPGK

Substance	absorbance at 450 nm [1]	absorbance at 450 nm [2]	absorbance at 450 nm [3]	absorbance at 450 nm [4]	absorbance at 450 nm [5]	absorbance at 450 nm [6]	absorbance at 450 nm [7]	absorbance at 450 nm [8]	Kd [9]	Kd [10]	EC50 [11]	EC50 [12]	Cell-based Reporter assay (EC50, nM) [13]	cell based functional assay (EC50, nM) [13]	Kd [16]	EC50 (read off the curve) [17]	EC50 [19]	EC50 (read off the curve) [20]	Kd [21]	EC50 [22]	further results
hIgG (human immunoglobulin (pH4), for intravenous injection, Hualan Biological Engineering Inc.) (antibody)	0.018 OD450	0.026 OD450	0.023 OD450	0.026 OD450	0.027 OD450	0.025 OD450	0.019 OD450	0.03 OD450	–	–	–	–	–	–	–	–	–	–	–	–	–
Mouse IgG-NC (mouse control Ab) (antibody)	0.047 OD450	0.125 OD450	0.044 OD450	0.096 OD450	0.087 OD450	0.099 OD450	0.05 OD450	0.109 OD450	–	–	–	–	–	–	–	–	–	–	–	–	–
BM1 (Dacetuzumab, Genentech Inc) (antibody)	1.87 OD450	0.028 OD450	1.99 OD450	0.036 OD450	1.02 OD450	0.077 OD450	1.83 OD450	0.291 OD450	5.85 nM	11.1 nM	0.335 nM	0.975 nM and 0.886 nM	4.39 nM and 4.81 nM	4.16 nM	14.1 nM	0.4 nM	0.434 nM	0.05 µg/mL	26.3 nM	1.3 nM	IC50 (read off the curve) [14]: 1 µg/mL; EC50 (read off the curve) [15]: 1 nM; EC50 (read off the curve) [18]: 0.8 nM; EC50 (read off the curve) [23]: 0.2 µg/mL; EC50 [24]: 0.000501 µg/mL; EC50 [25]: 0.33 nM
BM2 (Selicrelumab, Abgenix) (antibody)	1.63 OD450	0.029 OD450	1.85 OD450	0.028 OD450	0.669 OD450	0.052 OD450	1.42 OD450	0.178 OD450	6.03 nM	5.12 nM	0.716 nM	2.01 nM and 8.58 nM	7.01 nM and 4.9 nM	2.89 nM	12.2 nM	1 nM	1.25 nM	0.1 µg/mL	15.4 nM	2.11 nM	EC50 (read off the curve) [26]: 0.1 µg/mL; EC50 (read off the curve) [23]: 0.3 µg/mL; EC50 [24]: 0.000886 µg/mL; EC50 [25]: 0.72 nM
